Target: HPV16 E7 (His-E7) (Human papillomavirus type 16, UniProt P03129 1-98)
Experiment: EMSA; inhibited by excess unlabeled probe; EMSA buffer, salt, pH and temperature not given; UV crosslinking: 20 min incubation in binding buffer (composition not given), 254 nm 30 min on ice
Conditions: protein: recombinant; tags: His; label: biotin; blunt

Chain of HPV16 E7 (His-E7) (P03129 whole entry): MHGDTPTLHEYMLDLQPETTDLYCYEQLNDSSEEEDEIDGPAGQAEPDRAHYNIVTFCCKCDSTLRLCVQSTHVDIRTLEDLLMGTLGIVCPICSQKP

B1: MALAT1 promoter probe1 (dsDNA)
DNA 1: CAGGCGTTAGGGCGGGGCGCGCGTGC
DNA 2: GCACGCGCGCCCCGCCCTAACGCCTG
modifications: 5'-biotin
  binding result: binds

B2: MALAT1 promoter probe2 (dsDNA)
DNA 1: AGCTGCCACCCCGCCCCCATGCCAT
DNA 2: ATGGCATGGGGGCGGGGTGGCAGCT
modifications: 5'-biotin
  binding result: binds
